Results: patent publication US20170051285A1, “COMPOSITIONS AND METHODS OF USING SAME FOR REDUCING RESISTANCE TO MOSQUITO LARVICIDES” (priority 2014, published 2017)
Entries after “also recorded” stand apart in the source; their conditions may differ. Like-named read-outs stand apart in the source and are kept apart here.

Experiments:
Assay type in all cases: in vivo, Aedes aegypti
[1] = tested on: Ae. aegypti larvae (Rockefeller and Rio de Janeiro strains); assay: Temephos larval susceptibility bioassay (WHO methodology)
Procedure: (§1) First (L1), Second (L2) or Third (L3) instar larvae were treated (in groups of 100 larvae) in a final volume of 3 mL of autoclaved water with sodium channel (AAEL008297), PgP (AAEL010379), Ago3 (AAEL007823), and Aub (AAEL007698) dsRNA (0.5 μg/μL), or AAEL005112, AAEL003446, AAEL007815 and AAEL002202 dsRNA (0.1 μg/μL). The control group was kept in 3 ml sterile water only. Larvae were soaked in the dsRNA solutions for 24 hours at 27° C., and were then transferred into new containers (200 larvae/1000 mL of chlorine-free tap water), which were also maintained at 27° C., and provided […] lab dog/cat diet (Purina Mills) suspended in water as a source of food on a daily basis. After soaking procedure, the larvae were reared until third instar and divided in […] with 10-20 larvae in each cup (final volume of 100 mL) or were divided immediately after soaking. Six replicas were treated with the lethal concentration 50 (0.00573 ppm) of temephos and 2 replicas with ethanol only (control group). Mortality was recorded after 24 and 48 hours. See Flowcharts 1 and 2 (FIGS. 1 and 2, respectively).
Susceptibility tests were carried out according to the methodology proposed by the World Health Organization (WHO). In order to characterize the status of Temephos resistance in Ae. aegypti (Rio de Janeiro) strain, the present inventors first determined the lethal concentration LC99 (concentration able to kill 99% of the larvae) using the susceptible strain (Rockfeller) (see FIG. 5: 0.01401 ppm). Then, bioassays with the Rio de Janeiro strain were performed using a diagnostic concentration of 0.0282 ppm of Temephos, which corresponded to twice the lethal concentration, 99% (LC99), determined for this susceptible strain. According to WHO, when the field population is treated with the diagnostic dose and the mortality rates are equal to or higher than 98%, the population is considered susceptible, between 80% and 98%, with alterations in susceptibility, and below 80%, resistant [WHO (1981) WHO/VBC/81.807]. […]

[2] = tested on: Ae. aegypti female mosquitoes (Rockefeller and Rio de Janeiro strains); assay: CDC bottle bioassay with deltamethrin, adult females; settings: 2 μg/mL deltamethrin; for mortality at 2 µg/mL: Aedes aegypti, read-out: mortality at diagnostic dosage
Procedure: FIGS. 14A-C are graphs illustrating the dose-response curves for 3- to 5-day-old Aedes aegypti female mosquitoes on insecticide-susceptible Rockefeller strain (FIG. 14A) and on insecticide-resistant Rio de Janeiro strain (FIG. 14B). Mosquitoes were exposed to different concentrations of deltamethrin in 250-mL glass bottles for up to 24 hours and the percentage of mortality for each time point is shown. FIG. 14C, comparison of the mortality rates of female mosquitoes from Rockefeller (Rock) and Rio de Janeiro (RJ) strains exposed to 2 μg/mL of deltamethrin for different time-points. Data represent mean values of three replicates with standard deviation.
Bottles were prepared following the Brogdon and McAllister (1998) protocol [Brogdon and McAllister (1998) Emerg Infect Dis 4:605-613]. Fifteen-twenty non-blood-fed females from each site were introduced in 250 mL glass bottles impregnated with different concentrations of deltamethrin (Sigma-Aldrich) in 1 ml acetone. Each test consisted of four impregnated bottles and one control bottle. The control bottle contained acetone with no insecticide. At least three tests were conducted for each insecticide and population. Immediately prior to use, all insecticide solutions were prepared fresh from stock solutions. At 15, 30 and 45 min intervals, the number of live and dead mosquitoes in each bottle was recorded. The mortality criteria included mosquitoes with difficulties flying or standing on the bottle's surface. Mosquitoes that survived the appropriate dose for insecticide were considered to be resistant [Brogdon and McAllister (1998), supra].
Therefore, it was concluded that 36.05% of the mosquitoes in this population (RJ) are resistant to deltamethrin.

[3] = tested on: Argonaute-3 (AAEL007823) mRNA; assay: qPCR of Ago-3 mRNA after dsRNA treatment of larvae
Procedure: as §1
(§2) Approximately 1000 ng first-strand cDNA obtained as described previously was used as template. The qPCR reactions were performed using SYBR® Green PCR Master Mix (Applied Biosystems) following the manufacturer's instructions. […] Raw quantification cycle (Cq) values normalized against those of the tubulin and S7 standards were then used to calculate the relative expression levels in samples using the 2^−ΔΔCt method previously described [Livak & Schmittgen (2001) Methods. […]
(§3) Approximately 1000 ng first-strand cDNA obtained as described previously was used as template. […] Raw quantification cycle (Cq) values normalized against those of the tubulin and S7 standards were then used to calculate the relative expression levels in samples using the 2^−ΔΔCt method [Livak & Schmittgen, (2001) Methods. […]

[4] = tested on: P-glycoprotein (AAEL010379) mRNA; assay: qPCR of P-glycoprotein mRNA after dsRNA treatment of larvae
Procedure: as §1, §2, §3

[5] = tested on: A. aegypti 3rd instar larvae, Rockefeller strain; assay: Larvae feeding with food-containing dsRNA and bioassay with diflubenzuron; settings: diflubenzuron 2.5 μg/L
Procedure: FIG. 9A, 3rd instar larvae of Rockefeller strain were exposed to diflubenzuron (DBZ) pestanal larvicide (2.5 μg/L) in plastic cups containing 100 mL of dechlorinated tap water and fed simultaneously with dsRNA-containing food. Larval mortality was determined each 3 days. FIG. 9B, larvae were soaked with Sodium channel dsRNAs and exposed to diflubenzuron as described in FIG. 9A. Effects of diflubenzuron on adult emergence is shown as the percentage of emergence inhibition (100-100(T/C), where T is emergence (%) in DBZ-treated groups and C is emergence (%) in control groups. *p<0.01 (ANOVA, bar=S.D, n=4).
3rd instar larvae of Rockefeller strain were exposed to diflubenzuron (DBZ) pestanal larvicide (2.5 μg/L) in plastic cups containing 100 mL of dechlorinated tap water and fed simultaneously with dsRNA-containing food targeting PgP (FIG. 10A) or dsRNA-containing food targeting Sodium channel (FIG. 10B). Larval mortality was determined each 3 days. […]
Third instar larvae (in groups of 10 larvae) were exposed to one concentration (2.5 μg/L) of diflubenzuron pestanal (Sigma) in a final volume of 100 mL of chlorine-free tap water. […] The inhibition of emergence (%) was calculated according to the following formula: 100-100(T/C) where T is percent emergence in treated groups and C is percent emergence in control groups [Mulla et al. (1974) Proc. Papers Calif. […]

[6] = 24 and 48 hours after end of 24 hour soaking of 3rd instar larvae
[7] = soaked as third instar larvae, reared until adult stage

## COP(=S)(OC)Oc1ccc(Sc2ccc(OP(=S)(OC)OC)cc2)cc1 [Temephos]
[1]; Aedes aegypti, read-out: mortality at diagnostic concentration
  mortality at 0.0282 ppm: 60%
[1]; LC50 used to treat third instar larvae, strain not stated
  lethal concentration 50: 0.00573 ppm
[1]; susceptible strain (Rockfeller)
  lethal concentration LC99 (concentration able to kill 99% of the larvae): 0.01401 ppm

## CC1(C)[C@H](C(=O)O[C@H](C#N)c2cccc(Oc3ccccc3)c2)[C@@H]1C=C(Br)Br [deltamethrin]
[2]; Rio de Janeiro strain
  mortality at 2 µg/mL: 64%
[2]; Rockfeller strain
  mortality at 2 µg/mL: 100%
[2]; Rio de Janeiro (RJ) population
  mosquitoes of the population resistant to deltamethrin: 36.05%

B1: Ago-3 dsRNA: dsRNA targeting Ae. aegypti Argonaute-3 gene AAEL007823, SEQ ID NO: 185 (nucleic acid)
chain: CCCCGTCGACGGCCACGAAGTTACGATCAAGATCATTTACAAGCGCAAACAGCGAATGAGCGAGAACATTCAATTCTACAACATTCTCTTCCAACGCATTATGAAAGTCCTGAAGATGGTCGAGATGGGTCGTAAGAACTTTGACCCCTCGGCCCCGAAACTGATTCCGCAGCATCGTCTGGAGATCTGGCCGGGATACGTTAGCGCTGTGGACGAATATGAGGGCGGCTTGATGTTGAATCTCGACGTGTCCCATCGTGTGCTGCTCCAGACGACGGTTTTGGATCACATCCGAACGCTGGCAAGGGCCAATCCCCAAGATTACAAAAACATGGCCACCAAATCGCTGCTGGGAGCCGTTATATTGACCCGA
modifications: double stranded RNA
[3]; [6]
  Ago3 mRNA levels after the end of dsRNA treatment (FIG. 19B): decreased mRNA levels
[3]; RJ third instar larvae soaked 24 hours, after treatment with Temephos, versus water
  Ago-3 mRNA expression by qPCR (FIG. 8B): induced gene silencing; also recorded: reduction in the mRNA levels
[3]; [7]
  Ago3 mRNA expression in adult mosquitoes (FIG. 20B): reached normal levels

B2: P-glycoprotein dsRNA: dsRNA targeting Ae. aegypti P-glycoprotein gene AAEL010379, SEQ ID NO: 184 (nucleic acid)
chain: TGGAAAAGTTGACATTGACGGGATCACGACAACTGATTTCCAGCTTGGCCGCATACGTTCACAAATGGGTCTCGTATCGCAAGAACCTGTTCTGTTTGATCGCACCATCGCGGAAAATATTGCTTATGGTGACAACACTCGCGAGATAAGCATGCCGGAGATAATCGAGGCATCCAAAATGGCAAACATTCACGAATTCATCGTCAATCTACCGAAGGGGTATGACACTAGCCTAGGAACCAAAGGAGCTCAATTGTCTGGTGGCCAAAAGCAACGTATTGCTATAGCTCGTGCTTTGGTTAGAAATCCACGAATCC
modifications: double stranded RNA
[4]; [6]
  PgP mRNA levels after the end of dsRNA treatment (FIG. 19A): decreased mRNA levels
[4]; larvae soaked 24 hours in dsRNA, temephos bioassay at third instar, versus water
  P-glycoprotein mRNA expression by qPCR (FIG. 7): induced gene silencing; also recorded: decrease in mRNA expression level
[4]; [7]
  PgP mRNA expression in adult mosquitoes (FIG. 20A): reached normal levels
[5]; fed agarose cubes with 20 μg dsRNA once a day for 4 days
  viability of mosquito larvae 4 days after treatment with DBZ (FIGS. 10A-B): reduced significantly the viability of mosquito larvae
[5]; fed dsRNA-containing food simultaneously
  susceptibility to diflubenzuron: larvae mortality and adult emergence (FIGS. 9A-B): increases its susceptibility to diflubenzuron insecticide
